Source: US20190212291

Columns and labels:
[1] = test system: PEG-T38-Q
[2] = test system: PEG-T48-Q
[3] = test system: PEG-T2-Q
[4] = test system: PEG-T58-Q
[5] = test system: PEG-T56-Q
[6] = test system: PEG-T43-Q
[7] = test system: PEG-T7-Q
[8] = test system: PEG-T1-Q
[9] = test system: PEG-T3-Q
[10] = test system: PEG-T51-Q
[11] = test system: SB14
[12] = test system: PEG-T54-Q
[13] = test system: PEG-T24-Q
[14] = test system: T1, PEG-T39-Q
T1 sequence: GGGSGRSANAKGKGC

[15] = test system: T2, PB2
T2 sequence: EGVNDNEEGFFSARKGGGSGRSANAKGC

Chain of MMP9 (chain, as listed by the source): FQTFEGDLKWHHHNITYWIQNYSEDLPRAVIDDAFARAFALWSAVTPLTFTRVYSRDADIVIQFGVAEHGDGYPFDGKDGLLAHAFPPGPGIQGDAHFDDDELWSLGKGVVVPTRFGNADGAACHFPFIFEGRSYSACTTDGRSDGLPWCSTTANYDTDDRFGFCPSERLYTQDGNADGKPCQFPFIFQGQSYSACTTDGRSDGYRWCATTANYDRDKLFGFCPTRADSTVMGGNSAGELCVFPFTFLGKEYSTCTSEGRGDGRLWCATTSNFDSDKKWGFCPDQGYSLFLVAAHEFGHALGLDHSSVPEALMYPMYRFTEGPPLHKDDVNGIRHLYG
Chain of HPN (chain, as listed by the source): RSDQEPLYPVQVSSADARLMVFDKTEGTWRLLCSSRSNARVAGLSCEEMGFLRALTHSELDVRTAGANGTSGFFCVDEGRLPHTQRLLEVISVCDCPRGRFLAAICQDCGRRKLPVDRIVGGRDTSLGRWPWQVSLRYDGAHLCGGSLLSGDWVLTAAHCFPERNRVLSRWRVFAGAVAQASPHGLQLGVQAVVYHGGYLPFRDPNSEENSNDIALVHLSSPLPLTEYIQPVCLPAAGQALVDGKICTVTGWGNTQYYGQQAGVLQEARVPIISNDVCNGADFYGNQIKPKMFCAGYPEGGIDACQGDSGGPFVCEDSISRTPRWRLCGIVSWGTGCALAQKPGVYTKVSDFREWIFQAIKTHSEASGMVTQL
Chain of MMP3 (chain, as listed by the source): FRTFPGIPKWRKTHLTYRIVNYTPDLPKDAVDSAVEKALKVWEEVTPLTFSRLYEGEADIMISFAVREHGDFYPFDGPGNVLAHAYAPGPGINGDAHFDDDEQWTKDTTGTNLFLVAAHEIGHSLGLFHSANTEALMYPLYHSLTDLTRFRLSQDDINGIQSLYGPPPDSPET
Chain of MMP10 (chain, as listed by the source): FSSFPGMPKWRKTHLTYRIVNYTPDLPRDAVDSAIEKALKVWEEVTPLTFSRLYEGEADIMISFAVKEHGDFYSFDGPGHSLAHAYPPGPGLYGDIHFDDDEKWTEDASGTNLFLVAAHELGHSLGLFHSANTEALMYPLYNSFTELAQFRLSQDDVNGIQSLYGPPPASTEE

KLK2
Top hit (cleavage of PEG-coupled FRET substrate by recombinant proteases) [1]: KLK2
Second hit (cleavage of PEG-coupled FRET substrate by recombinant proteases) [2]: KLK2
Top hit (cleavage of PEG-coupled FRET substrate by recombinant proteases) [3]: KLK2

HPN
Top hit (cleavage of PEG-coupled FRET substrate by recombinant proteases) [4]: HPN
Top hit (cleavage of PEG-coupled FRET substrate by recombinant proteases) [2]: HPN

MMP10
Top hit (cleavage of PEG-coupled FRET substrate by recombinant proteases) [5]: MMP10

MMP3
Second hit (cleavage of PEG-coupled FRET substrate by recombinant proteases) [5]: MMP3
Top hit (cleavage of PEG-coupled FRET substrate by recombinant proteases) [6]: MMP3

MMP9
Top hit (cleavage of PEG-coupled FRET substrate by recombinant proteases) [7]: MMP9
Top hit (cleavage of PEG-coupled FRET substrate by recombinant proteases) [8]: MMP9
Top hit (cleavage of PEG-coupled FRET substrate by recombinant proteases) [9]: MMP9

KLK3
Second hit (cleavage of PEG-coupled FRET substrate by recombinant proteases) [3]: KLK3
Second hit (cleavage of PEG-coupled FRET substrate by recombinant proteases) [10]: KLK3

MMP13
substrate cleavage assay [11]: MMP13 substrate, expressed by PC3
Second hit (cleavage of PEG-coupled FRET substrate by recombinant proteases) [12]: MMP13
Top hit (cleavage of PEG-coupled FRET substrate by recombinant proteases) [13]: MMP13
substrate cleavage [13]: selectively cleaved by MMP13 and uPA
substrate cleavage in vitro [13]: in vitro, these substrates are cleaved by proteases overexpressed in PC3 cells, MMP13 and uPA

uPA
Top hit (cleavage of PEG-coupled FRET substrate by recombinant proteases) [14]: uPA
substrate cleavage [14]: selectively cleaved by MMP13 and uPA
substrate cleavage in vitro [14]: in vitro, these substrates are cleaved by proteases overexpressed in PC3 cells, MMP13 and uPA
substrate cleavage assay [15]: uPA substrate, expressed by PC3
